# Experimental data: the supplement of paper PMC10126150
# ± gives the standard deviation of the averaged measurements.
# Test system: ATP
# Test: switch fluorescence ratio, 500 uM ATP over buffer (Cy3 cluster intensity, sum of 5 cycles each) (fold (ratio)); higher = stronger signal-on switching upon ATP binding; sequences stand for … in TCGTCGGCAGCGTCAGATGTGTATAAGAGACAGTTTTTTTTTTTTTTTTTTTTTTTTT…TC
# Conditions: aptamer strand: ATP DNA aptamer (quencher-CACCTGGGGGAGTATTGCGGAGGAAGG + anchor), 100 nM annealed; ATP concentration: 500 uM
# Outline: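 The fluorescence ratio divides summed target-cycle Cy3 intensity by summed buffer-cycle Cy3 intensity for each cluster and is averaged per switch-domain sequence. Cy3-labelled switching-strand clusters on a modified Illumina MiSeq flow-cell were annealed to 100 nM quencher-labelled ATP aptamer, then imaged in selection buffer and again after 15 min with 500 uM ATP at 22 °C. Five such cycles were run, with NaOH stripping and re-annealing between them, and clusters outside 100-1000 RFU were excluded.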
# 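Further: ATP exposure 15 min at 22 °C before imaging.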
row,Sequence,switch fluorescence ratio
1,TCAGGCTAGC,1.07 ± 0.026
2,TCAGGCTAGG,1.02 ± 0.028
3,TCAGGCTGTT,0.968 ± 0.04
4,TCAGGGACGA,1.02 ± 0.055
5,TCAGGGAGGG,1.06 ± 0.15
6,TCAGGGAGTG,0.9758 ± 0.0095
7,TCAGGGCGTG,1 ± 0.026
8,TCAGGGGAAG,0.999 ± 0.015
9,TCAGGGGCTG,0.974 ± 0.043
10,TCAGGGGGCT,1.03 ± 0.088
11,TCAGGGGGGT,1.11 ± 0.3
12,TCAGGGGTCG,1.05 ± 0.056
13,TCAGGGGTGG,1 ± 0.058
14,TCAGGGTGAA,1.02 ± 0.041
15,TCAGGGTTGG,0.978 ± 0.024
16,TCAGGGTTTT,1.01 ± 0.018
17,TCAGGTGGGT,1.22 ± 0.22
18,TCAGTAATTT,1.03 ± 0.032
19,TCAGTACATG,0.992 ± 0.02
20,TCAGTCAGCT,1 ± 0.039
21,TCAGTCCGGA,1.02 ± 0.024
22,TCAGTGACGT,0.9827 ± 0.0096

row,Sequence,switch fluorescence ratio
1,TCAGTGCCAG,0.992 ± 0.022
2,TCAGTTAATT,1.008 ± 0.0099
3,TCAGTTGGTT,0.977 ± 0.064
4,TCAGTTGTAT,0.979 ± 0.011
5,TCAGTTTAGC,1.01 ± 0.016
6,TCAGTTTGGT,0.99 ± 0.017
7,TCATAAAGGG,1.03 ± 0.0064
8,TCATAAGGGA,0.997 ± 0.028
9,TCATAAGTTG,0.9957 ± 0.0042
10,TCATACCATT,1 ± 0.024
11,TCATAGAGTA,1.02 ± 0.018
12,TCATAGGATT,0.995 ± 0.04
13,TCATAGGTTT,0.974 ± 0.038
14,TCATAGTCGG,1 ± 0.024
15,TCATATGGTG,1.03 ± 0.038
16,TCATCGTCT,1.01 ± 0.023
17,TCATCTTTTT,0.9477 ± 0.0022
18,TCATGAACTT,1.07 ± 0.078
19,TCATGATAGT,0.9825 ± 0.0081
20,TCATGCCAAC,1.03 ± 0.011
21,TCATGCCGGG,1.04 ± 0.014
22,TCATGCTGAG,0.98 ± 0.0077

row,Sequence,switch fluorescence ratio
1,TCATGGAGTA,0.981 ± 0.08
2,TCATGGATAG,1.006 ± 0.002
3,TCATGGCGGT,1.01 ± 0.014
4,TCATGGGGGA,1.03 ± 0.046
5,TCATGGGGTT,1.006 ± 0.0065
6,TCATGTATTG,1.01 ± 0.037
7,TCATTAATTT,0.9873 ± 0.0086
8,TCATTCAACT,1 ± 0.013
9,TCATTCAAGT,1.04 ± 0.011
10,TCATTCCATT,0.988 ± 0.031
11,TCATTCGCAG,3.73 ± 0.77
12,TCATTCGTCC,1.099 ± 0.0056
13,TCATTGGGG,0.974 ± 0.029
14,TCATTTAAGG,0.987 ± 0.02
15,TCATTTATTG,1.02 ± 0.024
16,TCATTTTTTT,0.997 ± 0.036
17,TCCAACGTAT,1.493 ± 0.0064
18,TCCAAGGGAT,1.01 ± 0.012
19,TCCAAGGGGT,1.06 ± 0.044
20,TCCAAGTCCC,1.018 ± 0.0088
21,TCCAATCGGT,0.973 ± 0.019
22,TCCAATCTCT,1.06 ± 0.02

row,Sequence,switch fluorescence ratio
1,TCCAATTGGA,0.9855 ± 0.0021
2,TCCAATTGGG,1.11 ± 0.09
3,TCCACTCTTC,0.991 ± 0.024
4,TCCAGACGGC,1 ± 0.013
5,TCCAGGGCGA,1.16 ± 0.13
6,TCCAGGGTAA,1.0425 ± 0.00073
7,TCCAGGTGGG,2.39 ± 0.19
8,TCCAGGTTAG,1.17 ± 0.03
9,TCCAGTCAAA,1.01 ± 0.075
10,TCCAGTTTTT,0.999 ± 0.015
11,TCCATAAAAA,0.999 ± 0.022
12,TCCATCTGCG,1.097 ± 0.007
13,TCCATGTATC,0.984 ± 0.02
14,TCCATTAGGA,0.9978 ± 0.0082
15,TCCATTGTGT,0.992 ± 0.029
16,TCCATTTTGT,1.01 ± 0.05
17,TCCATTTTTT,0.992 ± 0.035
18,TCCCAAAATG,1.01 ± 0.039
19,TCCCACGGCC,1.083 ± 0.0017
